Measurements: PMC3581573 (PLoS ONE, 2013)

B1: Xenopus laevis PRMT5 (enzyme, UniProt Q6NUA1 1-633, looked up)
chain: MAAGDGGRVSSGRDVACVTEVADTLGAMANQGFDFLCMPIFHPRFKREFYKEPAKSRPGPQTRSDLLLSGRDWNTLIVGKLSDWIKTDSEVSRIRKTSEAAMQQELNFSAYLGLPAFLIPLKQEDNSNLSRLLINHIHVGHHSTMFWMRVPLMAPNDLRDDLIENEPISLSEEDNSGEERTWIWWHNFRSLCDYNKKIALAIEIGADLPSGHVIDRWLGEPIKAAFLPTSIFLTNKKGFPVLTKVHQRLIFKLFKLEVQFVISGSHHHSEKDLCSYLQYLEYLSQNSPPPNAYEMFAKGYEDYLQSPLQPLMDNLESQTYEVFEKDPVKYSQYQQAVYKCLLDRVPEEEKETNIQILMVLGAGRGPLVNASLRAAKQAERKIKVYAVEKNPNAVITLEGWRYEEWGSQVTVVSGDMREWKAPEKADIIVSELLGSFGDNELSPECLDGAQHFLKDDGVSIPGEYTSYLAPISSSKLYNEVRACREKDRDPEAQFEMPYVVRLHNFHQLSDPLPCFTFHHPNKDDVIDNNRYCCLQYRVDLNTVLHGFAGYFNTVLYKDVTLSICPESHSPGMFSWFPILFPIKQPIPMREGDTVCVRFWRCNNGKKVWYEWAVTSPVCSAIHNPTGRSYTIGL
notes: Protein arginine methyltransferase 5 (PRMT5), Xenopus laevis, full-length, as the PRMT5 chain of the crystallised XlPRMT5-MEP50 complex; The complex was purified on Ni-NTA, so one or both chains probably carry a His tag; A selenomethionine form was used for phasing; also called XlPRMT5; source: Hi5 cells, baculovirus, co-expressed with MEP50, purified (Ni-NTA, Superdex 200)
B2: Recombinant Xenopus laevis MEP50 alone (natural protein, UniProt Q6NUD0 1-333, looked up)
chain: MSKGSAWGRPVTAPACMEVQIGAVRYRRDGALLLAASSLSSRTWGGSIWVFKDPEGAPNESLCTAGVQTEAGVTDVAWVSEKGILVASDSGAVELWEILEKESLLVNKFAKYEHDDIVKTLSVFSDGTQAVSGGKDFSVKVWDLSQKAVLKSYNAHSSEVNCVAACPGKDTIFLSCGEDGRILLWDTRKPKPATRIDFCASDTIPTSVTWHPEKDDTFACGDETGNVSLVNIKNPDSAQTSAVHSQNITGLAYSYHSSPFLASISEDCTVAVLDADFSEVFRDLSHRDFVTGVAWSPLDHSKFTTVGWDHKVLHHHLPSEGRTENLIATKAED
notes: MEP50, Xenopus laevis; recombinant protein used without PRMT5; also called XlMEP50; Xenopus MEP50

How the values were obtained:
[1] = target: the molecule itself; assay: crystal structure; XlPRMT5-MEP50 co-crystallised with 1 mM SAH; 30%–40% MPD, 100 mM Bis-Tris pH 5.5, 18°C; 3.0 Å
[2] = target: T1, Recombinant Flag-tagged human PRMT5 (human, UniProt O14744 1-637); assay: pull-down; XlMEP50 and Flag-HsPRMT5 (both 50 nM) on anti-Flag M2 agarose in TBS, 4°C, 2 hours; eluate immunoblotted for PRMT5 and MEP50; control: MEP50 without PRMT5; conditions: both partners purified
T1 construct: Protein arginine methyltransferase 5 (PRMT5), human; also called Flag-HsPRMT5; HsPRMT5; source: bought: SinoBiologicals (expressed in 293 cells)
T1 sequence (O14744 whole entry): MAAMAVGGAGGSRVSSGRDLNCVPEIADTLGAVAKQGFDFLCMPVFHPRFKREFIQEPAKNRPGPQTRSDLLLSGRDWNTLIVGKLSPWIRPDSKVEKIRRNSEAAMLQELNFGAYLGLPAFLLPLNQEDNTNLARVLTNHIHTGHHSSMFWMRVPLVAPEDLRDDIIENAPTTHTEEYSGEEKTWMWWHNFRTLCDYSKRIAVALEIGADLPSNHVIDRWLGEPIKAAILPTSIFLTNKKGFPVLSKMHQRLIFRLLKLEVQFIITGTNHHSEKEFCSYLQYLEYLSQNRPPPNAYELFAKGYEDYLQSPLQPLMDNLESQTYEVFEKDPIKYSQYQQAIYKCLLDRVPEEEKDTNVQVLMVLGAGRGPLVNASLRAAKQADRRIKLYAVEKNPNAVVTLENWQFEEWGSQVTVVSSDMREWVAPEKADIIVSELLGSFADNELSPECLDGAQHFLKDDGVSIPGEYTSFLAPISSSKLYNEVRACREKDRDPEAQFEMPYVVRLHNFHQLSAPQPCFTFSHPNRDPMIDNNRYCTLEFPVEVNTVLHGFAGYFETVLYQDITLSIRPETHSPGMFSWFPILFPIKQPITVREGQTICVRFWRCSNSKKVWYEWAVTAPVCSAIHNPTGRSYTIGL

Binder	stoichiometry N [1]	binding result [2]
B1	4	–
B2	–	binds
